From patent US20050260197A1 (IMMUNEX, published 2005)

T1: oncostatin M (125I-labeled) (UniProt P13725 26-221, limits assumed, radioiodinated (125I))
T1 construct: also called OSM; 125I-OSM
T1 sequence (looked up): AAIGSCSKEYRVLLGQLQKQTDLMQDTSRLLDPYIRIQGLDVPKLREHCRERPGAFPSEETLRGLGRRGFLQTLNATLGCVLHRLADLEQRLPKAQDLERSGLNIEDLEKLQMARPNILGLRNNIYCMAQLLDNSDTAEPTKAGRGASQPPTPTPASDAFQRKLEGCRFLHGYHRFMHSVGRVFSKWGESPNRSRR


Experiments:
[1] = target: T2, recombinant human leukemia inhibitory factor (125I-labeled) (human, UniProt P15018 23-202, radioiodinated (125I)); assay: 125I-LIF binding to Fc fusion captured on Protein A beads
T2 construct: also called LIF; 125I-LIF
T2 sequence (P15018 23-202 limits assumed): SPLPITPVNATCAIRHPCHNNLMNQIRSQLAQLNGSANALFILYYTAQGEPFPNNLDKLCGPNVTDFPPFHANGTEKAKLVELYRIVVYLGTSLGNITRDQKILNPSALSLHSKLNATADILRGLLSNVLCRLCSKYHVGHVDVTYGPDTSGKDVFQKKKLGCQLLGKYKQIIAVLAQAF
Experimental: (§1) The transfected cells were cultured to allow expression and secretion of the fusion proteins into the culture medium. Cross-linked agarose beads bearing Protein A (Protein A Sepharose CL-4B, Pharmacia Biotech, Inc., Piscataway, N.J.) were added to the culture supernatants, whereupon the fusion proteins bound to the beads via the interaction of the Fc moiety with the Protein A. Radioiodinated oncostatin M or radioiodinated LIF was also added to the culture supernatants. Preparation of ¹²⁵I-oncostatin M is described in example 2 above. Among the known procedures for purifying and radioiodinating LIF are those described in example 1 of U.S. Pat. No. 5,284,755. The ¹²⁵I-LIF employed in this assay was recombinant human LIF labeled with 125I using the enzymobead reagent (BioRad).
(§2) The culture supernatants were incubated with the Protein A beads and ¹²⁵I-LIF or ¹²⁵I-oncostatin M for 18 hours at 4° C. Free and cell-bound ¹²⁵I-LIF or ¹²⁵i-oncostatin M were separated by low speed centrifugation through a single step density gradient of 3% glucose in PBS. The bead-bound radioiodinated proteins were quantified on a Packard Autogamma counter.

[2] = target: T2, recombinant human leukemia inhibitory …; assay: 125I-LIF binding to Fc fusions captured on Protein A beads
Experimental: as §1, §2

[3] = target: T1, oncostatin M (125I-labeled); assay: 125I-oncostatin M binding to Fc fusion captured on Protein A beads
Experimental: as §1, §2

binding result [1]	binding result [2]	binding result [3]	Binder
no binding	–	–	soluble human gp130/Fc fusion protein (Fc fusion, Tested from culture supernatant, captured on Protein A beads; also called soluble gp130/Fc; experiment B; not shown: 7 amino acid peptide linker encoded by the polylinker of plasmid hIgG1Fc) ELLDPCGYISPESPVVQLHSNFTAVCVLKEKCMDYFHVNANYIVWKTNHFTIPKEQYTIINRTASSVTFTDIASLNIQLTCNILTFGQLEQNVYGITIISGLPPEKPKNLSCIVNEGKKMRCEWDGGRETHLETNFTLKSEWATHKFADCKAKRDTPTSCTVDYSTVYFVNIEVWVEAENALGKVTSDHINFDPVYKVKPNPPHNLSVINSEELSSILKLTWTNPSIKSVIILKYNIQYRTKDASTWSQIPPEDTASTRSSFTVQDLKPFTEYVFRIRCMKEDGKGYWSDWSEEASGITYEDRPSKAPSFWYKIDPSHTQGYRTVQLVWKTLPPFEANGKILDYEVTLTRWKSHLQNYTVNATKLTVNLTNDRYLATLTVRNLVGKSDAAVLTIPACDFQATHPVMDLKAFPKDNMLWVEWTTPRESVKKYILEWCVLSDKAPCITDWQQEDGTVHRTYLRGNLAESKCYLITVTPVYADGPGSPESIKAYLKQAPPSKGPTVRTKKVGKNEAVLEWDQLPVDVQNGFIRNYTIFYRTIIGNETAVNVDSSHTEYTLSSLTSDTLYMVRMAAYTDEGGKDGPEPRSCDKTHTCPPCPAPELLGGPSVFLFPPKPKDTLMISRTPEVTCVVVDVSHEDPEVKFNWYVDGVEVHNAKTKPREEQYNSTYRVVSVLTVLHQDWLNGKDYKCKVSNKALPAPMQKTISKAKGQPREPQVYTLPPSRDELTKNQVSLTCLVKGFYPRHIAVEWESNGQPENNYKTTPPVLDSDGSFFLYSKLTVDKSRWQQGNVFSCSVMHEALHNHYTQKSLSLSPGK
–	no binding	–	proteins expressed by cells co-transfected with vectors encoding soluble OSM-Rβ/Fc and soluble gp130/Fc (Fc fusion, also called OSM-Rβ/Fc and gp130/Fc; experiment F; not shown: 7 amino acid peptide linker encoded by the polylinker of plasmid hIgG1Fc) chain 1: ERLPLTPVSLKVSTNSTRQSLHLQWTVHNLPYHQELKMVFQIQISRIETSNVIWVGNYSTTVKWNQVLHWSWESELPLECATHFVRIKSLVDDAKFPEPNFWSNWSSWEEVSVQDSTGQDILFVFPKDKLVEEGTNVTICYVSRNIQNNVSCYLEGKQIHGEQLDPHVTAFNLNSVPFIRNKGTNIYCEASQGNVSEGMKGIVLFVSKVLEEPKDFSCETEDFKTLHCTWDPGTDTALGWSKQPSQSYTLFESFSGEKKLCTHKNWCNWQITQDSQETYNFTLIAENYLRKRSVNILFNLTHRVYLMNPFSVNFENVNATNAIMTWKVHSIRNNFTYLCQIELHGEGKMMQYNVSIKVNGEYFLSELEPATEYMARVRCADASHFWKWSEWSGQNFTTLEAAPSEAPDVWRIVSLEPGNHTVTLFWKPLSKLVEPRSCDKTHTCPPCPAPELLGGPSVFLFPPKPKDTLMISRTPEVTCVVVDVSHEDPEVKFNWYVDGVEVHNAKTKPREEQYNSTYRVVSVLTVLHQDWLNGKDYKCKVSNKALPAPMQKTISKAKGQPREPQVYTLPPSRDELTKNQVSLTCLVKGFYPRHIAVEWESNGQPENNYKTTPPVLDSDGSFFLYSKLTVDKSRWQQGNVFSCSVMHEALHNHYTQKSLSLSPGK chain 2: ELLDPCGYISPESPVVQLHSNFTAVCVLKEKCMDYFHVNANYIVWKTNHFTIPKEQYTIINRTASSVTFTDIASLNIQLTCNILTFGQLEQNVYGITIISGLPPEKPKNLSCIVNEGKKMRCEWDGGRETHLETNFTLKSEWATHKFADCKAKRDTPTSCTVDYSTVYFVNIEVWVEAENALGKVTSDHINFDPVYKVKPNPPHNLSVINSEELSSILKLTWTNPSIKSVIILKYNIQYRTKDASTWSQIPPEDTASTRSSFTVQDLKPFTEYVFRIRCMKEDGKGYWSDWSEEASGITYEDRPSKAPSFWYKIDPSHTQGYRTVQLVWKTLPPFEANGKILDYEVTLTRWKSHLQNYTVNATKLTVNLTNDRYLATLTVRNLVGKSDAAVLTIPACDFQATHPVMDLKAFPKDNMLWVEWTTPRESVKKYILEWCVLSDKAPCITDWQQEDGTVHRTYLRGNLAESKCYLITVTPVYADGPGSPESIKAYLKQAPPSKGPTVRTKKVGKNEAVLEWDQLPVDVQNGFIRNYTIFYRTIIGNETAVNVDSSHTEYTLSSLTSDTLYMVRMAAYTDEGGKDGPEPRSCDKTHTCPPCPAPELLGGPSVFLFPPKPKDTLMISRTPEVTCVVVDVSHEDPEVKFNWYVDGVEVHNAKTKPREEQYNSTYRVVSVLTVLHQDWLNGKDYKCKVSNKALPAPMQKTISKAKGQPREPQVYTLPPSRDELTKNQVSLTCLVKGFYPRHIAVEWESNGQPENNYKTTPPVLDSDGSFFLYSKLTVDKSRWQQGNVFSCSVMHEALHNHYTQKSLSLSPGK
no binding	–	no binding	soluble OSM-Rβ/Fc fusion protein (Fc fusion, Truncated extracellular domain of OSM-Rβ; Tested from culture supernatant, captured on Protein A beads; also called experiment D) ERLPLTPVSLKVSTNSTRQSLHLQWTVHNLPYHQELKMVFQIQISRIETSNVIWVGNYSTTVKWNQVLHWSWESELPLECATHFVRIKSLVDDAKFPEPNFWSNWSSWEEVSVQDSTGQDILFVFPKDKLVEEGTNVTICYVSRNIQNNVSCYLEGKQIHGEQLDPHVTAFNLNSVPFIRNKGTNIYCEASQGNVSEGMKGIVLFVSKVLEEPKDFSCETEDFKTLHCTWDPGTDTALGWSKQPSQSYTLFESFSGEKKLCTHKNWCNWQITQDSQETYNFTLIAENYLRKRSVNILFNLTHRVYLMNPFSVNFENVNATNAIMTWKVHSIRNNFTYLCQIELHGEGKMMQYNVSIKVNGEYFLSELEPATEYMARVRCADASHFWKWSEWSGQNFTTLEAAPSEAPDVWRIVSLEPGNHTVTLFWKPLSKLVEPRSCDKTHTCPPCPAPELLGGPSVFLFPPKPKDTLMISRTPEVTCVVVDVSHEDPEVKFNWYVDGVEVHNAKTKPREEQYNSTYRVVSVLTVLHQDWLNGKDYKCKVSNKALPAPMQKTISKAKGQPREPQVYTLPPSRDELTKNQVSLTCLVKGFYPRHIAVEWESNGQPENNYKTTPPVLDSDGSFFLYSKLTVDKSRWQQGNVFSCSVMHEALHNHYTQKSLSLSPGK
